Measured values published in patent US20200140512A1 (published 2020).
One block for each binder: values may come before it.

Experiments:
Cyno PD-1 = molecular target: T1, Cyno PD-1; assay: Octet
T1 chain: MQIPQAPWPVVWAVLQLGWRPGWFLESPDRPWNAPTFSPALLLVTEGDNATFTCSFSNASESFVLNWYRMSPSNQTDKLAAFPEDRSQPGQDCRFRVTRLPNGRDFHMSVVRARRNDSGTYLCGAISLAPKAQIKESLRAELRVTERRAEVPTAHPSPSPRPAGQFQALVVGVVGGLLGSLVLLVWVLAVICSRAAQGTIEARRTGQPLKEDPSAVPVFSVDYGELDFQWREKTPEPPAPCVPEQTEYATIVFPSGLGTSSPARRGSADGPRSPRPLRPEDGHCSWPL

human PD-1-His = human PD-1-His (human, UniProt Q15116 25-167); assay: Octet
Chain of human PD-1-His (Q15116 25-167): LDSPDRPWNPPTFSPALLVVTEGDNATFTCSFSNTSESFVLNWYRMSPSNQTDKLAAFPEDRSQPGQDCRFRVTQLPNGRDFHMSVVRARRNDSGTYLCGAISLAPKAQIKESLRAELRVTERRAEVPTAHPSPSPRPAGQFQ

Kd (Cyno PD-1): 35.8 nM
Kd (human PD-1-His): 24 nM
B1: XENP28536 (bivalent mAb based on humanized mAb C, mAb C[PD-1]_H1L1) (antibody, V domains shown)
VH: EVQLVESGGGLVQPGGSLRLSCAASGFTFSSFGMHWVRQAPGKGLEWVSYISSGSSIIYYADSVKGRFTISRDNAKNSLYLQMNSLRAEDTAVYYCARGGRLVWSPDYWGQGTLVTVSS
VL: DIVMTQSPDSLAVSLGERATINCKSSQSLLNSGNQKNYLTWYQQKPGQPPKLLIYWASTRESGVPDRFTGSGSGTDFTLTISSLQAEDVAVYYCQNDYSYPFTFGSGTKLEIK

Kd (Cyno PD-1): 42 nM
B2: XENP28537 (humanized variant of anti-PD-1 mAb C, bivalent human IgG1) (antibody, V domains shown)
VH: B1 VH
VL: DIVMTQSPLSLPVTPGEPASISCRSSQSLLNSGNQKNYLTWYLQKPGQPPQLLIYWASTRESGVPDRFTGSGSGTDFTLKISRVEAEDVGVYYCQNDYSYPFTFGSGTKLEIKR

Kd (human PD-1-His): 11.9 nM
B3: XENP28519 (bivalent mAb based on humanized mAb A) (antibody, V domains shown)
VH: QVQLQESGPGLVKPSQTLSLTCTVSGHSITSDYAWNWIRQPPGKKLEWIGYISYSGYTTYNPSLKSRVTISRDTSKNQFSLKLSSVTAADTAVYFCARDLDYGPWFAYWGQGTLVTVSS
VL: DIQMTQSPSSLSASVGDRVTITCRASENIHNYLAWYQQKPGKSPKLLVYNVKTLADGVPSRFSGSGSGTDYTLTISSLQPEDFATYYCQHFWSSPWTFGGGTKVEIKR
